For the data set, the target named is gelatin.

B1: recombinant stem bromelain (protein)
chain: SRDEPNDPMMKRFEEWMAEYGRVYKDDDEKMRRFQIFKNNVKHIETFNSRNENSYTLGINQFTDMTKSEFVAQYTGVSLPLNIEREPVVSFDDVNISAVPQSIDWRDYGAVNEVKNQNPCGSCWSFAAIATVEGIYKIKTGYLVSLSEQEVLDCAVSYGCKGGWVNKAYDFIISNNGVTTEENYPYLAYQGTCNANSFPNSAYITGYSYVRRNDERSMMYAVSNQPIAALIDASENFQYYNGGVFSGPCGTSLNHAITIIGYGQDSSGTKYWIVRNSWGSSWGEGGYVRMARGVSSSSGVCGIAMAPLFPTLQSGANAEVIKMVSET
B1 came in with a Diameter of halo zones (mm), Average of 9 mm; a Diameter of halo zones (mm), Plate 1 of 8 mm; a Diameter of halo zones (mm), Plate 2 of 10 mm; a Diameter of halo zones (mm), Plate 3 of 9 mm.

For the origin of these results see patent US20110151541.
